Patent US20210072250A1
Residue numbers refer to the chain shown, from its start.

What was measured:
P1-Hpu [1] = test: SPR
P1-deoxy [2] = test: SPR
P1-Hpu [3] = test: SPR, ratio of KD values
P1-deoxy [4] = test: SPR, ratio of KD values
P2-Hpu [5] = test: SPR, ratio of KD values
P2-deoxy [6] = test: SPR, ratio of KD values
P4-Hpu [7] = test: SPR, ratio of KD values
P5-Hpu [8] = test: SPR, ratio of KD values
P1-Hpu [9] = test: SPR, Biacore T200, peptide captured, Fab flowed
P1-deoxy [10] = test: SPR, Biacore T200, peptide captured, Fab flowed
P2-Hpu [11] = test: SPR, Biacore T200, peptide captured, Fab flowed
P2-deoxy [12] = test: SPR, Biacore T200, peptide captured, Fab flowed
P4-Hpu [13] = test: SPR, Biacore T200, peptide captured, Fab flowed
P5-Hpu [14] = test: SPR, Biacore T200, peptide captured, Fab flowed
P3-Hpu [15] = test: SPR, ratio of KD values
P3-Hpu [16] = test: SPR, Biacore T200, peptide captured, Fab flowed

B1: FabHpu98.61 (Fab)
heavy: QSVEESGGRLVTPGTPLTLTCTVSACSLYHCTMNWVRQAPGKGLEWIGDIYTDGNTYYANWAKGRFTISKTSTTVDLKITSPTTEDTATYFCARDSWDASSYYGLDLWGQGTLVTVSSGQPKGPSVFPLAPCCGDTPSSTVTLGCLVKGYLPEPVTVTWNSGTLTNGVRTFPSVRQSSGLYSLSSVVSVTSSSQPVTCNVAHPATNTKVDKTVAPSTCSKPT
light: AIKMTQTPSSVSAAVGGTVTINCQASEDIKRYLAWYQQKPGQPPKLLIYAASKLASGVSSRFKGSGSGTEYTLTISGVQCDDAATYYCQQGYTSSNVNNAFGGGTEVVVKGDPVAPTVLIFPPAADQVATGTVTIVCVANKYFPDVTVTWEVDGTTQTTGIENSKTPQNSADCTYNLSSTLTLTSTQYNSHKEYTCKVTQGTTSVVQSFNRGDC
**Q.** How did the Kd (P1-Hpu [1]) turn out when B1 was run?
**A.** 18 nM

**Q.** And the Kd (P1-deoxy [2])?
**A.** 20 nM

**Q.** And the Fold improvement in KD over parent FabHpu98 (P1-Hpu [3])?
**A.** 7.9 fold

**Q.** And the Fold improvement in KD over parent FabHpu98 (P1-deoxy [4])?
**A.** 6.9 fold

**Q.** And the Fold improvement in KD over parent FabHpu98 (P2-Hpu [5])?
**A.** 2.6 fold

**Q.** And the Fold improvement in KD over parent FabHpu98 (P2-deoxy [6])?
**A.** 1.8 fold

**Q.** And the Fold improvement in KD over parent FabHpu98 (P4-Hpu [7])?
**A.** 2.5 fold

**Q.** And the Fold improvement in KD over parent FabHpu98 (P5-Hpu [8])?
**A.** 2.5 fold

**Q.** What about the Kd (P1-Hpu [9]) of the same binder?
**A.** 15 nM

**Q.** And the Kd (P1-deoxy [10])?
**A.** 17 nM

**Q.** And the Kd (P2-Hpu [11])?
**A.** 78 nM

**Q.** And the Kd (P2-deoxy [12])?
**A.** 86 nM

**Q.** And the Kd (P4-Hpu [13])?
**A.** 91 nM

**Q.** What about the Kd (P5-Hpu [14]) of the same binder?
**A.** 70 nM

B2: FabHpu24 (Fab)
heavy: QEQLKESGGRLVAPGTPLTLTCTVSGFDISDYAMIWVRQAPGKGLEWIGIIYGGSNKLAYAKWAKGRFTISRTSTTVDLKITSPTTEDTATYFCARGYGSMDGYDRLNLWGQGTLVTVSSGQPKGPSVFPLAPCCGDTPSSTVTLGCLVKGYLPEPVTVTWNSGTLTNGVRTFPSVRQSSGLYSLSSVVSVTSSSQPVTCNVAHPATNTKVDKTVAPSTCSKPT
light: AAVLTQTPSPVSAAVGGTVTISCQSSETVYRGDWLSWFQKKPGQPPKLLIYDASYLASGVSSRFSGSGSGTHFTLTISGVQCDDAATYYCLGGYYDDADDTFGGGTEVVVKGDPVAPTVLIFPPAADQVATGTVTIVCVANKYFPDVTVTWEVDGTTQTTGIENSKTPQNSADCTYNLSSTLTLTSTQYNSHKEYTCKVTQGTTSVVQSFNRGDC
**Q.** What does the source list for B2?
**A.** Kd (P1-Hpu [9]): 192 nM; Kd (P2-Hpu [11]): 157 nM; Kd (P4-Hpu [13]): 541 nM; Kd (P5-Hpu [14]): 96 nM

B3: FabHpu24.B (Fab)
heavy: B2 heavy with G54V, S55I, K57D
light: B2 light with Q24R, S26R, E27Q, T28R, R31L, Y55F, L56R, A57G, S58D
**Q.** B3 was tested. Which Fold improvement in KD over parent FabHpu24 (P1-Hpu [3]) did it give?
**A.** 32 fold

**Q.** What about the Fold improvement in KD over parent FabHpu24 (P2-Hpu [5]) of the same binder?
**A.** 12 fold

**Q.** And the Fold improvement in KD over parent FabHpu24 (P3-Hpu [15])?
**A.** > 5 fold

**Q.** What about the Fold improvement in KD over parent FabHpu24 (P4-Hpu [7]) of the same binder?
**A.** 17 fold

**Q.** What about the Fold improvement in KD over parent FabHpu24 (P5-Hpu [8]) of the same binder?
**A.** 13 fold

**Q.** What about the Kd (P1-Hpu [9]) of the same binder?
**A.** 6 nM

**Q.** And the Kd (P2-Hpu [11])?
**A.** 13 nM

**Q.** What about the Kd (P3-Hpu [16]) of the same binder?
**A.** 186 nM

**Q.** And the Kd (P4-Hpu [13])?
**A.** 32 nM

**Q.** And the Kd (P5-Hpu [14])?
**A.** 7 nM
